Measurements published in US20240376151A1, “STAPLED PEPTIDES AND METHODS THEREOF” (FOG PHARMACEUTICALS, INC., priority 2022, published 2024).
Numbered stars: 1 amine (or outer) side, 2 acyl side, 3 side chain; on linkers, the order of the positions; unused ones are H or OH. Bridge positions count the residues as written; N and C are the ends. Ends that are not written are not given here. Phenylene(1,4-NHCOCH2)2 = O=C(C[*:1])Nc1ccc(NC(=O)C[*:2])cc1

Tests used:
FBXW7-SKP1 = target: T1, FBXW7-SKP1 (Homo sapiens, UniProt Q969H0); experiment: Naive Library Presenter Screening (phage, NGS), FBXW7-SKP1; format: binding; conditions: for interaction data at Target Concentration 10: FBXW7 target concentration 10 nM; for interaction data at Target Concentration 30: FBXW7 target concentration 30 nM; for interaction data at Target Concentration 100: FBXW7 target concentration 100 nM; for interaction data at Target Concentration 300: FBXW7 target concentration 300 nM; for interaction data at Target Concentration 1000: FBXW7 target concentration 1000 nM
T1 construct: FBXW7 (Uniprot ID: Q969H0, residues 263-706) with an N-terminal GST-TEV tag and C-terminal AVI tag; GST-TEV (N); made in house; host or cells: E. coli BL21 (DE3)
T1 sequence (Q969H0 263-706): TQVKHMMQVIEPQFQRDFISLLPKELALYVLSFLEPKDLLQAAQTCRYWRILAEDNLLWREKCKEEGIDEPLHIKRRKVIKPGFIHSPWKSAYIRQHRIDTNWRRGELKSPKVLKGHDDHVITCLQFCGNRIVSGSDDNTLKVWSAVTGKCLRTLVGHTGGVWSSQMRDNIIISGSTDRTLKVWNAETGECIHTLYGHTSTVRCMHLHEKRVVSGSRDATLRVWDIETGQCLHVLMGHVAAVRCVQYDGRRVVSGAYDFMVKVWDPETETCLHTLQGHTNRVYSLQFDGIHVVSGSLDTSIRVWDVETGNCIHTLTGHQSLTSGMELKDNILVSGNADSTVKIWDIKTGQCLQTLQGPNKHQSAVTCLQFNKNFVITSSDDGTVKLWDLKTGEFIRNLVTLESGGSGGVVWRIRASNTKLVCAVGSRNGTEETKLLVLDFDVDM
T1 sequence (P63208 whole entry partner, the tested form may be a part): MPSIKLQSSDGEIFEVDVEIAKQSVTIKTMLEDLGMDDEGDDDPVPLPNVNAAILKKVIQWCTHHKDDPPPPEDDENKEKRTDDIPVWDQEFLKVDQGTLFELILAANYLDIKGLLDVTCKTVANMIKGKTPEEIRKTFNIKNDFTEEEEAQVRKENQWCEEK
Protocol: To conduct phage library screening, previously described procedures were utilized in accordance with the present disclosure.
Next-generation sequencing was performed as described in accordance with the present disclosure.
Hit ID and Clustering is performed according to a described procedure in accordance with the present disclosure.

WWP1 = target: T2, WWP1 (Homo sapiens, UniProt Q9H0M0); experiment: Naive Library Presenter Screening (phage, NGS), WWP1 (construct not given); format: binding; conditions: for interaction data at Target Concentration 10: WWP1 target concentration 10 nM; for interaction data at Target Concentration 30: WWP1 target concentration 30 nM; for interaction data at Target Concentration 100: WWP1 target concentration 100 nM; for interaction data at Target Concentration 300: WWP1 target concentration 300 nM; for interaction data at Target Concentration 1000: WWP1 target concentration 1000 nM
T2 construct: GST-TEV (N, cleaved yes); made in house; host or cells: Escherichia coli BL21 (DE3)

Sequence | interaction data at Target Concentration 10 (FBXW7-SKP1) | interaction data at Target Concentration 30 (FBXW7-SKP1) | interaction data at Target Concentration 100 (FBXW7-SKP1) | interaction data at Target Concentration 300 (FBXW7-SKP1) | interaction data at Target Concentration 1000 (FBXW7-SKP1; first column) | interaction data at Target Concentration 1000 (FBXW7-SKP1; second column) | interaction data at Target Concentration 10 (WWP1) | interaction data at Target Concentration 30 (WWP1) | interaction data at Target Concentration 100 (WWP1) | interaction data at Target Concentration 300 (WWP1) | interaction data at Target Concentration 1000 (WWP1; first column) | interaction data at Target Concentration 1000 (WWP1; second column)
DPANIACDDAALLCAFW | 0 | 0 | 2 | 7 | 5 | 8 |  |  |  |  |  | 
DPAAFFCDDAAERCEFW | 4 | 39 | 35 | 163 | 245 | 449 |  |  |  |  |  | 
DPADMYCRDAAELCEFW | 1 | 23 | 187 | 302 | 505 | 554 |  |  |  |  |  | 
DPAFWYCDEAAEMCEFW | 0 | 0 | 20 | 28 | 91 | 17 |  |  |  |  |  | 
DPADLTCEDAAELCEFW | 2 | 80 | 352 | 535 | 1005 | 510 |  |  |  |  |  | 
DPAITTCLDAAELCDFW | 1 | 26 | 61 | 34 | 215 | 132 |  |  |  |  |  | 
DPADMMCENAALLCEFW | 1 | 3 | 68 | 20 | 282 | 228 |  |  |  |  |  | 
DPAAWICEEAAEICEFW | 0 | 0 | 5 | 4 | 15 | 36 |  |  |  |  |  | 
DPAIIRCTSAAMMCHNT (linker 7-14 via Phenylene(1,4-NHCOCH2)2) |  |  |  |  |  |  | 0 | 4 | 0 | 55 | 183 | 169
DPAQLSCTVAAHVCHST (linker 7-14 via Phenylene(1,4-NHCOCH2)2; not fully specified (C-terminus)) |  |  |  |  |  |  | 0 | 25 | 0 | 254 | 275 | 140
DPAWMACAWAANLCHSS (linker 7-14 via Phenylene(1,4-NHCOCH2)2) |  |  |  |  |  |  | 0 | 18 | 14 | 91 | 244 | 253
DPAHQTCAFAAVLCHQN (linker 7-14 via Phenylene(1,4-NHCOCH2)2) |  |  |  |  |  |  | 0 | 0 | 32 | 18 |  | 309
DPANIACDDAALLCELW | 0 | 1 | 1 | 7 | 8 | 6 |  |  |  |  |  | 
DPAFLTCTLAASLCHQD (linker 7-14 via Phenylene(1,4-NHCOCH2)2) |  |  |  |  |  |  | 0 | 0 | 0 | 145 |  | 253
DPAIFDCEFAAHVCSVL (linker 7-14 via Phenylene(1,4-NHCOCH2)2) |  |  |  |  |  |  | 0 | 26 |  | 436 | 275 | 618
DPAMIACSHAAQMCHWS (linker 7-14 via Phenylene(1,4-NHCOCH2)2) |  |  |  |  |  |  | 0 | 8 | 3 | 454 | 275 | 281
DPAFHYCTMAANMCHQD (linker 7-14 via Phenylene(1,4-NHCOCH2)2) |  |  |  |  |  |  | 0 | 0 | 3 | 73 |  | 169
DPAQQTCSQAAWVCSIL (linker 7-14 via Phenylene(1,4-NHCOCH2)2; not fully specified (C-terminus)) |  |  |  |  |  |  | 0 | 55 | 443 | 363 | 397 | 477
DPATMNCTLAANICHSH (linker 7-14 via Phenylene(1,4-NHCOCH2)2 (inferred); not fully specified (C-terminus)) |  |  |  |  |  |  | 0 | 0 | 3 | 363 | 458 | 197
DPARLDCTAAAYVCSVL (linker 7-14 via Phenylene(1,4-NHCOCH2)2) |  |  |  |  |  |  | 0 | 0 | 109 | 91 |  | 140
DPATETCAQAAVLCHSD (linker 7-14 via Phenylene(1,4-NHCOCH2)2 (inferred); not fully specified (C-terminus)) |  |  |  |  |  |  | 1 | 12 | 3 | 200 | 519 | 449
DPAIMSCMYAAEVCRVL (linker 7-14 via Phenylene(1,4-NHCOCH2)2) |  |  |  |  |  |  | 0 | 1 | 147 | 109 | 183 | 253
DPAWVSCVRAANLCHVS (linker 7-14 via Phenylene(1,4-NHCOCH2)2 (inferred); not fully specified (C-terminus)) |  |  |  |  |  |  | 33 | 1 | 0 | 0 | 183 | 140
